Measured values taken from paper PMC10917784.

Target: Trastuzumab
Test: SPR; antibody constructs immobilised on a Protein L Series S CM5 chip, increasing concentrations of Fc receptor flushed; Biacore 8K+, 25 °C, neutral pH; steady state affinity model
Settings: remark: other sources report otherwise

B1: human FcγRIIa ECD, P12318 34-217 (receptor)
chain: QAAAPPKAVLKLEPPWINVLQEDSVTLTCQGARSPESDSIQWFHNGNLIPTHTQPSYRFKANNNDSGEYTCQTGQTSLSDPVHLTVLSEWLVLQTPHLEFQEGETIMLRCHSWKDKPLVKVTFFQNGKSQKFSHLDPTFSIPQANHSHSGDYHCTGNIGYTLFSSKPVTITVQVPSMGSSSPMG
Kd: 543 nM
